Results from patent US20120058118A1 (Boehringer Ingelheim, published 2012).
Where two headings read alike, the source gives them in different places. Each block holds one binder with its values, some of them ahead of it. Ends that are not written are not given here. * marks the point of attachment. Biotin = O=C1N[C@H]2[C@H](CS[C@H]2CCCCC(=O)*)N1

Legend:
[1] = target: T1, aggregated A-beta(1-40) peptide (BAA) (human); assay: BAA ELISA
T1 construct: also called A-beta peptide aggregates

[2] = target: T2, human A-beta(1-40) peptide, monomeric (BAM) (human, biotin at the C-terminus in capture ELISA, SPR and TR-FRET; not biotinylated where coated directly (Example 7)); assay: BAM ELISA
T2 construct: synthetic peptide (Anaspec), TFA/HFIP treated to give monomer; also called monomeric A-beta

[3] = target: T1, aggregated A-beta(1-40) peptide (BAA); assay: BAA ELISA; remark: listed apart in the source
[4] = target: T2, human A-beta(1-40) peptide, monomeric …; assay: BAM ELISA; remark: listed apart in the source
[5] = target: T2, human A-beta(1-40) peptide, monomeric …; assay: TR-FRET competition
[6] = target: T2, human A-beta(1-40) peptide, monomeric …; assay: cell-based or functional assay
[7] = target: T2, human A-beta(1-40) peptide, monomeric …; assay: TR-FRET competition, labelled ABII42D4
[8] = target: T2, human A-beta(1-40) peptide, monomeric …; assay: ABII002 TR-FRET competition assay
[9] = target: T2, human A-beta(1-40) peptide, monomeric …; assay: ABII002 TR-FRET competition assay; remark: listed apart in the source
[10] = target: T2, human A-beta(1-40) peptide, monomeric …; assay: ABII050 TR-FRET competition assay
A-beta(1-16) peptide = target: T3, A-beta(1-16) peptide (human); assay: SPR on captured A-beta(1-16)
T3 construct: Bachem peptide captured on streptavidin chip; also called monomeric A-beta(1-16)
T3 peptide: DAEFRHDSGYEVHHQK-biotin
Procedure: (§1) After capturing, surfaces are blocked by injecting an excess (200 μg/ml) of d-biotin for 180 s at 5 μl/min. A reference surface is washed and blocked with d-biotin. HBS-EP+buffer is used as the running buffer and experiments are performed at 25° C. For off-rate screening, periplasmic extracts of VHHs are injected at a 10-fold dilution for 2 min at 45 μl/min and are allowed to dissociate for 10 min. […] Between different VHH samples, the surfaces are regenerated with regeneration buffer (50 mM NaOH) for 25 s at 45 μl/min followed by 10 s 6M GuHCl at 45 μl/min if regeneration is incomplete. […] Data are double referenced by subtraction of the curves on the reference channel and of a blank running buffer injection. Sensorgrams are evaluated by fitting a 1:1 dissociation model using the Biacore T100 Evaluation software v1.1.1.

[11] = target: T2, human A-beta(1-40) peptide, monomeric …; assay: TR-FRET competition; remark: listed apart in the source
[12] = target: T2, human A-beta(1-40) peptide, monomeric …; assay: cell-based or functional assay; remark: listed apart in the source
A-beta(12-28) peptide = target: T4, A-beta(12-28) peptide (human); assay: SPR on captured A-beta(12-28)
T4 construct: Bachem peptide captured on streptavidin chip; also called monomeric A-beta(12-28); central region
T4 peptide: Biotin-VHHQKLVFFAEDVGSNK
Procedure: as §1

[13] = target: T2, human A-beta(1-40) peptide, monomeric …; assay: TR-FRET competition, mean IC50
[14] = target: T2, human A-beta(1-40) peptide, monomeric …; assay: 42D4 TR-FRET assay (labelled ABII42D4)
[15] = target: T2, human A-beta(1-40) peptide, monomeric …; assay: TR-FRET competition, labelled ABII60A10
[16] = target: T2, human A-beta(1-40) peptide, monomeric …; assay: 60A10 TR-FRET assay (labelled ABII60A10)
[17] = target: T2, human A-beta(1-40) peptide, monomeric …; assay: TR-FRET competition; labelled competitor not given
[18] = target: T5, human A-beta peptide (residues 1-24) (human); assay: crystal structure
T5 construct: used for co-crystallisation; also called A-beta(1-24)
Procedure: The complex is concentrated by diafiltration to a concentration of 4 mg/ml. Crystallization trials are set up as sitting drop vapour diffusion experiments by mixing 200 nl of protein with 200 nl of reservoir solution against a reservoir volume of 100 μl. […] Data are collected at the beamline 6SA of the swiss light source at the Paul-Scherrer Institute in Villigen, Switzerland.

[19] = target: T2, human A-beta(1-40) peptide, monomeric …; assay: ELISA, format not stated
[20] = target: T2, human A-beta(1-40) peptide, monomeric …; assay: SPR (Biacore T100), periplasmic extracts on captured biotinylated A-beta(1-40), 1:1 model
Procedure: as §1

[21] = target: T2, human A-beta(1-40) peptide, monomeric …; assay: TR-FRET competition, labelled ABII42D4; remark: listed apart in the source
[22] = target: T2, human A-beta(1-40) peptide, monomeric …; assay: SPR, captured C-terminally biotinylated A-beta(1-40), 1:1 model
Procedure: as §1

[23] = target: T2, human A-beta(1-40) peptide, monomeric …; assay: TR-FRET competition and SPR
[24] = target: T2, human A-beta(1-40) peptide, monomeric …; assay: TR-FRET competition, labelled ABII60A10; remark: listed apart in the source
[25] = target: T6, pGlu-A-beta(1-28), C-terminally biotinylated (human, pyroglutamate formed from the glutamate at position 3 (N-terminus); biotin at the C-terminus); assay: SPR on captured C-terminally biotinylated pGlu-A-beta(1-28), 1:1 model
T6 construct: printed as pGlu-A-beta(1-28), while the text says that the first two N-terminal residues are missing; range 3-28 is my reading; also called pyroglutamyl-Abeta
T6 sequence (peptide, as listed by the source): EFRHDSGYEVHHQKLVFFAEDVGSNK
Source text: Association and dissociation curves can be fitted using a 1:1 interaction model and an accurate KD value can be determined.

T5 sequence (peptide, as listed by the source): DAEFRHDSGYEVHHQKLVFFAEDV

EC50 [1]: 7.2 nM | EC50 [2]: 98.6 nM | EC50 [3]: 7.2 nM | EC50 [4]: 98.6 nM | IC50 [5]: > 1000 nM | Aggregation inhibition (% inhibition at 26 µM) [6]: 29% | IC50 [7]: > 1000 nM
B1: reference VHH 2G6 (VHH)
VHH: QVKLEESGGGLVQPGGSLRLSCAASGFTFSNYWMYWVRQAPGKGLEWVSTISPRAANTYYADSVKGRFTISRDNAKNTLYLQMNSLEPDDTALYYCAKSLRYRDRPQSSDFLFWRQGTQVTVSS
notes: from WO2006/40153

fold improved IC50 against monovalent ABII035 [8]: 27 fold | fold improved potency against 3D6 IgG [8]: 14.6 fold | IC50 [9]: 0.13 nM | IC50 [10]: 0.28 nM
B2: ABII315-PEG20 (designed binder)
chain: EVQLLESGGGLVQPGGSLRLSCAASGRTFNNYNMGWFRQAPGKGREFVAAVSRSGVSTYYADSVKGRFTISRDNSKNTVYLQMNSLRPEDTAVYYCAAAYRGTAINVRRSYSSWGQGTLVTVSSGGGGCGGGSEVQLLESGGGLVQPGGSLRLSCVHSGPTFRTDTMGWFRQAPGKGREFVAAVTWNSGRINYADSVKGRFTISRDNSKNTAYLQMNSLRPEDTAVYYCAAHRFVVGGNRVEDWRYWGQGTLVTVSS
modifications: PEG20 on the Cys at position 5 of the 9GS linker
notes: 059-9GSC-035; purified as His6-tagged construct before PEGylation

binding result [18]: binds | fold difference of EC50 against the 2D2 and 2G6 VHHs [19]: > 50 fold | Aggregation inhibition (% inhibition at 26 µM) [6]: 80% | IC50 [13]: 33 nM | IC50 [10]: 12.8 nM | IC50 [17]: 33 nM
B5: ABII059 (VHH)
VHH: EVQLLESGGGLVQPGGSLRLSCAASGRTFNNYNMGWFRQAPGKGREFVAAVSRSGVSTYYADSVKGRFTISRDNSKNTVYLQMNSLRPEDTAVYYCAAAYRGTAINVRRSYSSWGQGTLVTVSS
notes: humanized variant of ABII050

IC50 [10]: 0.53 nM | IC50 [24]: 0.5 nM | Kd [25]: 0.224 nM
B11: monoclonal antibody m266 (IgG) (antibody, V domains shown)
VH: EVKLVESGGGLVQPGGSLKLSCAVSGFTFSRYSMSWVRQTPEKRLELVAQINSVGNSTYYPDTVKGRFTISRDNAEYTLSLQMSGLRSDDTATYYCASGDYWGQGTTLTVSS
VL: DVVMTQTPLSLPVSLGDQASISCRSSQSLIYSDGNAYLHWFLQKPGQSPKLLIYKVSNRFSGVPDRFSGSGSGTDFTLKISRVETEDLGVYFCSQSTHVPWTFGGGTKLEIK
notes: also called IgG m266; IgG266

The next lines start with the binder.

B3: ABII5D2 (VHH)
VHH: EVQLVESGGGLVQAGGSLRLSCAASGRTFSSYAMGWVRQAPGKERELVATISQSGGLRSYADSVKGRFTISRDNAKNTVYLQMNSLTPGDTAVYYCAAQARATAWSPQRVDYWGQGTQVTVSS
EC50 [1]: 11.7 nM | EC50 [2]: 54.1 nM | binding result (A-beta(1-16) peptide): binds | IC50 [7]: > 1000 nM

B4: ABII60A10 = ABII050 (VHH)
VHH: EVQLVESGGGLVQAGGSLRLSCAASGRTFNNYNMGWFRQAPGKEREFVAAVSRSGVSTYYADSVKGRFTISRDNAKNAVYLQMNSLKPEDTAIYYCGAAYRGTAINVRRSYDSWGQGTQVTVSS
EC50 [1]: 0.8 nM | EC50 [2]: 4.9 nM | EC50 [3]: 0.8 nM | EC50 [4]: 4.9 nM | fold improved IC50 against reference VHH 2D2 [11]: 36 fold | inhibition of peptide aggregation (ThT fluorescence), 28 µM VHH [12]: 80% | IC50 [5]: 11.1 nM | Aggregation inhibition (% inhibition at 26 µM) [6]: 80% | binding result (A-beta(12-28) peptide): binds | IC50 [13]: 19 nM | IC50 [10]: 6.3 nM | IC50 [14]: > 1000 nM | IC50 [15]: 11.1 nM | IC50 [16]: 30 nM | IC50 [17]: 19 nM

B6: ABII60G11 (VHH)
VHH: EVQLVESGGGSEQAGGSLRLSCATSGRAFSVYAWFRQAPGKERTFVAAVAWVGGSTFYSDSVKGRFTISRDNAKNTVFLHMNSLKPEDTAAYYCAARLYGGRWYNSPRVDDFEYWGQGTQVTVSS
EC50 [1]: 6 nM | EC50 [2]: 187 nM | binding result (A-beta(12-28) peptide): binds | IC50 [15]: 34.4 nM | koff [20]: 0.027 s⁻¹

B7: ABII42D4 (VHH)
VHH: EVQLVESGGGLVLAGGSLRLSCVHSGPTFSTDTMGWFRQAPGKEREFVAAVTWNSGRTNYADSVKGRFTVSRDNTRNAAYLQMSGLKDEDTAVYYCTAHRLVVGGTSVGDWRYWGQGTQVTVSS
notes: also called ABIIPMP42D4
EC50 [1]: 0.9 nM | EC50 [2]: 14.2 nM | EC50 [3]: 0.9 nM | EC50 [4]: 14.2 nM | fold improved IC50 against reference VHH 2G6 [11]: ≥ 21 fold | IC50 [5]: 46.8 nM | binding result (A-beta(1-16) peptide): binds | IC50 [21]: 44 nM | IC50 [7]: 46.8 nM | IC50 [14]: 51 nM | IC50 [16]: > 1000 nM | Kd [22]: 16 nM | koff [20]: 0.0061 s⁻¹

B8: ABII111B5_M107E (VHH)
VHH: EVQLVESGGGLVLAGGSLRLSCVHSGPTFRTDTMGWFRQAPGKEREFVAAVTWNSGRINYADSVKGRFTVSRDNTRNAAYLQMSGLKDEDTAVYYCTAHRFVVGGNEVEDWRYWGQGTQVTVSS
notes: targeted mutant
fold improvement of IC50 and KD over original ABII42D4 [23]: > 10 fold | IC50 [21]: 4.3 nM

B9: ABII111B5_E109Q (VHH)
VHH: EVQLVESGGGLVLAGGSLRLSCVHSGPTFRTDTMGWFRQAPGKEREFVAAVTWNSGRINYADSVKGRFTVSRDNTRNAAYLQMSGLKDEDTAVYYCTAHRFVVGGNMVQDWRYWGQGTQVTVSS
notes: targeted mutant
fold improvement of IC50 and KD over original ABII42D4 [23]: > 10 fold | IC50 [21]: 3.7 nM

B10: ABII42G10 (VHH)
VHH: EVQLVESGGGLVQAGGSLRLSCLFSGRTFSTNGVGWFRQVPGKEREFVSAINWSGSKTNYAEPVKGRFTISRDNAKNTAYLQMNSLKPEDTAVYYCAAYRTSISRYEYAYWGQGTQVTVSS
EC50 [1]: 49.5 nM | EC50 [2]: 87 nM | binding result (A-beta(1-16) peptide): binds | IC50 [7]: > 1000 nM

B12: ABII60H5 (VHH)
VHH: EVQLVESGGGLVQVGGSLRLSCAASGNIGSINAMGWYRQAPGKEREWVAIITNSGSVNYGPDSVKGRFTISGDNAKNRVYLQMDSLKPEDTAVYYCAAESWGRSPLKYLGQGTQVTVSS
EC50 [2]: > 1000 nM | binding result (A-beta(1-16) peptide): binds
